The target in the series is Klf4 ZnF1-3 DNA-binding domain (mouse, UniProt Q60793 396-483). The series is described as follows: X-ray crystallography (1.85 A); 3 Zn2+; FP: 20 mM Tris-HCl pH 7.5, 150 mM NaCl, 5% (v/v) glycerol, 0.5 mM TCEP, ~22 C; probe 10 nM (WT) or 1 nM (E446A). Conditions: protein: recombinant; tags: GST tag removed; N-terminal GPLGS left; blunt.
Chain of Klf4 ZnF1-3 DNA-binding domain (Q60793 396-483): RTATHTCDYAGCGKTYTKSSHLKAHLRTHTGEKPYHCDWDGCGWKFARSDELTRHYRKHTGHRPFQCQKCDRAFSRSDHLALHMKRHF

B1: crystal 10-mer M/M (dsDNA)
DNA 1: GAGGCGTGGC
DNA 2: GCCACGCCTC
modifications: 5mC at position 5 of strand 1 and position 5 of strand 2
As to B1, the binding result is reported as “binds”.

These data come from article PMC4005678, “Structural basis for Klf4 recognition of methylated DNA”.
